Our source for the % inhibition of ligand receptor interaction values is patent publication US20190016812A1.

Sequences and labels used below:
B1: SC113.172 (antibody, V domains shown)
VH: QGHLQQSGAELMKPGASVKISCKATGYTFSSYWIEWVKQRPGHGLEWIGEILPGSGSTHYNEKFKGKATFTADTSSNTAYMQLISLTSEDSAVYYCARRDAMDYWGQGTSVTVSS
VL: DIVMTQSPSSLTVTPGEKVTMSCKSSQSLLTSGNQKNYLTWYQQQPGQPPKLLIYWASTRESGVPDRFTGSGSGTDFTLTISSVQAEDLAVYYCQNDYSYPYTFGGGTKLEIK
B2: SC113.119 (antibody, V domains shown)
VH: QVQLQQSGTELARPGASVRLSCKASGYTFTSYGLSWVKQRTGQGLEWIGEIFPGSGNSNYNENFKGKATLTADKSSSTAYMQVSSLSSEDSVVYFCARGGFDFWGQGTSLTVSS
VL: DIQMTQSPSSLSASLGERVSLTCRASQEITGYLSWLQQKPDGTIKRLIYAASTLDSGVPKRFSGSRSGSDYSLTISSLESEDFADYYCLQYARYPPTFGGGTKLEIK
B3: SC113.118 (antibody, V domains shown)
VH: QVQLQQSGTELARPGASVKLSCKASGYTFTSYGLSWVKQRTGQGLEWIGEIFPGSGNSNYNENFKGKATLTADKSSSTAYMQLSSLTSDDSVVYFCARGGFDYWGQGTTLTVSS
VL: DIQMTQSPSSLSASLGERVSLTCRASQEISGFLSWLQQKPDGTIKRLIYAASTLDSGVPKRFSGSRSGSDYSLTISSLESEDFADYYCLQYARYPPTFGGGTKLEIK
B4: SC113.187 (antibody, V domains shown)
VH: QVQLQQSGAELAKPGASVKMSCKASGYTFTSYWMYWVKQRPGQGLEWIGYINPSTGYTEYNQKFKDKATLTADKSSSTAYMQLNSLTSEDSAVYYCARSGYYGSSSLAYWGQGTLVTVSA
VL: NIVLTQSPASLAVSLGQRATISCRASESVDSYGNSFMHWYQQKPGQPPKLLIYLASNLESGVPARFSGSGSRTDFTLTIDPVEADDAATYYCQQNNEDPWTFGGGTKLEIK
B5: SC113.190 (antibody, V domains shown)
VH: QVQLQQPGAELVKPGASVKLSCKASGYTFTTYYMYWVKQRPGQGLEWIGGINPSNGDTDFNEKFKSKATLTVDKSSSTVYMQLSSLTPEDSAVYFCTSAGYTSWFAYWGQGTLVTVSA
VL: QIVLTQSPALMSASPGEKVTMTCSASSSVSYMNWYQQKPRSSPKPWIYLTSHLASGVPARFSGSGSGTSYSLTISSMEAEDAATYYCQQWSSKPPTFGSGTKLEIK

Chain of human TNFSF9 (R&D Systems; #2295-4L-025/CF) (human) (P41273 71-254 limits assumed): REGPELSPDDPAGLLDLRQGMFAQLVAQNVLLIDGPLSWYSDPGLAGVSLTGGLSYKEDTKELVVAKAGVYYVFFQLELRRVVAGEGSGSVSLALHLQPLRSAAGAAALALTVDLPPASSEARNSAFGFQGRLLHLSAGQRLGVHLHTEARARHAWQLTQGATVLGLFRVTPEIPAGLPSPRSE

The experiment concerns the target human TNFSF9 (R&D Systems; #2295-4L-025/CF) (human) (UniProt P41273). Put plainly: MSD ELISA: TNFSF9 + 1 ug/mL antibody, binding to coated TNFRSF9. In general terms: In an ELISA, binding on a coated surface is turned into a signal by an enzyme label.
Take B1: the % inhibition of ligand receptor interaction is -3%.
Regarding B2, the % inhibition of ligand receptor interaction was -8%.
For the molecule B3, the % inhibition of ligand receptor interaction is 3%.
Consider B4, for which the % inhibition of ligand receptor interaction is -2%.
Take B5: the % inhibition of ligand receptor interaction is 8%.
